Experimental findings from publication PMC5816147 are described below.

This test addresses GLP1 receptor (human) (UniProt P43220).

Sequence of GLP1 receptor (human) (P43220 24-463): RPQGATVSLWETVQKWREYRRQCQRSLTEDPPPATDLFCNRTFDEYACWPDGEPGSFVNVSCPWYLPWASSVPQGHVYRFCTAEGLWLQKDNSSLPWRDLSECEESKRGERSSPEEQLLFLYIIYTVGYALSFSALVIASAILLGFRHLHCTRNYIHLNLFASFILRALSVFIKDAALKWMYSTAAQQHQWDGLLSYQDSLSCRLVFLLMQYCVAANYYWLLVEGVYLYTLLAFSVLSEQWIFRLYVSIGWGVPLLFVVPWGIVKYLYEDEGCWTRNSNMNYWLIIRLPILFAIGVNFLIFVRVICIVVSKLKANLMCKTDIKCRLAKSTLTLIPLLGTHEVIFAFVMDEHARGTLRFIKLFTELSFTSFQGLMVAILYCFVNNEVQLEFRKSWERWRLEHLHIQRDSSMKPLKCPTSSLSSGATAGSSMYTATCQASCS

(D)-GLP1 peptide (designed binder) yielded an EC50 of CRE-luciferase expression in HEK293 cells stably expressing GLP1R of 2200 nM.
